We go through ten molecules from patent US20220251241A1 (NGM BIOPHARMACEUTICALS, published 2022).

In test [1] the target is T1, HTRA1 (construct not given) (Homo sapiens (Human), UniProt Q92743 23-480, limits assumed). The experiment in a line: cell-based or functional assay.
For test [2], the target named is T1, HTRA1 (construct not stated in the …). The experiment in a line: protease inhibition assay, casein substrate (EnzChek); apparent Ki (Ki^app). The text has this:
Two enzymatic assays were used to characterize HTRA1 protease activity and evaluate inhibitory activity of anti-HTRA1 antibodies. EnzChek® Protease Assay Kit (ThermoFisher Scientific) was used following the manufacturer's instructions. This kit contains casein protein that is heavily labeled with the pH-insensitive green-fluorescent BOPIPY® FL dye that results in almost total quenching of the conjugate's fluorescence. Protease-catalyzed hydrolysis of labeled casein releases highly fluorescent BODIPY® FL dye-labeled peptides. The concomitant increase in fluorescence is proportional to protease activity.
Antibodies identified in HTRA1 binding assays were tested for their ability to inhibit HTRA1 protease activity. The range of antibody concentrations was tested to establish a dose response curve and determine IC₅₀ values.

For test [3] the target is unchanged. As to the kind of experiment: protease inhibition assay, H2-Opt peptide substrate (FRET); apparent Ki (Ki^app).
Test [4] addresses human delta N-HTRA1 (amino acids 156-480 of SEQ ID NO:1) (human, UniProt Q92743 156-480). As to the kind of experiment: SPR (Biacore); antibody captured by anti-Fc, human delta N-HTRA1 injected; temperature of this table not stated. The method, then: (§1) The binding affinities of anti-HTRA1 antibodies to human HTRA1 were measured using a Biacore system (GE Healthcare Life Sciences). Briefly, anti-Fc antibody (Sigma-Aldrich) was immobilized on all four flow cells of a CMS chip using amine coupling reagents (GE Healthcare LifeSciences). Antibodies were captured on flow cells 2, 3, and 4 using flow cell 1 as a reference. Concentrations ranging from 3.3-10 nM of human delta N-HTRA1 were injected at a flow rate of 50 μL/min at 37° C. Kinetic data were collected over time and fit using the simultaneous global fit equation to yield affinity constants (KD values) for each antibody.
Background: Surface plasmon resonance follows binding to a sensor surface in real time, without labels.

The target of test [5] is T1, HTRA1 (construct not stated in the …). As to the kind of experiment: SPR (Biacore). How it is done:
as §1
In order to determine whether a hz24F7.v2 variant, comprising one of the amino acid substitutions disclosed in Table 15, retains its HTRA1 binding capability, functional characterization was performed via an SPR assay as described herein and an HTRA1 enzyme assay.

Test [6] has the same target. As to the kind of experiment: cell-based or functional assay. This is another data set of the same source.
For test [7] the target is unchanged. As to the kind of experiment: cell-based or functional assay. The source holds these as a separate data set.
Test [8] shares this target. The experiment in a line: cell-based or functional assay. This is another data set of the same source.
The target is the same in test [9]. The experiment in a line: SPR (Biacore); affinity at baseline.

T1 sequence (Q92743 23-480 limits assumed): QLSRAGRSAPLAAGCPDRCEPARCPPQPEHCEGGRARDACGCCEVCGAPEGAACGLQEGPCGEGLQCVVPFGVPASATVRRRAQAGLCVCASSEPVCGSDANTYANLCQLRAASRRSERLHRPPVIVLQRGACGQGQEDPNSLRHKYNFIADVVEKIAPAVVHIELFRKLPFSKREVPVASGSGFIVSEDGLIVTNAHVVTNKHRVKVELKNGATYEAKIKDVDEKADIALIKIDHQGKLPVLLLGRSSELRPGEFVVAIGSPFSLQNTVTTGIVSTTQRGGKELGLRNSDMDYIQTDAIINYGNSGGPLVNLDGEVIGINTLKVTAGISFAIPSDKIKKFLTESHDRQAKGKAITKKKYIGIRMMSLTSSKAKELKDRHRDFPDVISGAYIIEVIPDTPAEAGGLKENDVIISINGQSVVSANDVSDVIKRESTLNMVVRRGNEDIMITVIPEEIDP
human delta N-HTRA1 (amino acids 156-480 of SEQ ID NO:1), sequence (Q92743 156-480, stated change not applied): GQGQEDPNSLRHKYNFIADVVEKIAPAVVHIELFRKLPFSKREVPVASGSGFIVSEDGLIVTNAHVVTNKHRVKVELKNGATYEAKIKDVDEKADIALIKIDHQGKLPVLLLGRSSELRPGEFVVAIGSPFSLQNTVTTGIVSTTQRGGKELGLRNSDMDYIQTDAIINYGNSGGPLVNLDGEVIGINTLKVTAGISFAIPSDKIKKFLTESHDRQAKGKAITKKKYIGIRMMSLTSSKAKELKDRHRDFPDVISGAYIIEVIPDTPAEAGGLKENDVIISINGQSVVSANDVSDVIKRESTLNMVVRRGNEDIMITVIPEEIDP

B1: antibody 9F8 (antibody, V domains shown)
VH: QVQLQQPGAELVRPGSSVKLSCKASGYAFTTYWMHWVKQRPIQGLEWIGNIDPSDSETHYNQKFRDKATLTVDKSSSTAYMQLSSLTSEDSAVYYCARDYGAFDVWGTGTTVTVSS
VL: QAVVTQESALTTSSGETVTLTCRSSTGAVTTRNFASWVQEKPDHLFTGLIGGTNNRAPGVPARFSGSLIGDKAALTITGAQTEDEAIYFCALWYSNLWVFGGGTKLTVL
notes: Mouse hybridoma monoclonal antibody
The Kd is the free concentration of one partner at which half of the binding sites on the other are occupied at equilibrium, for simple one-to-one binding. In general, koff refers to the first-order rate constant of dissociation. A lower koff goes with slow dissociation. Broadly, the kon is the second-order rate constant of association. A higher kon goes with fast association. As for B1, in test [1], the “IC50, Protease Assay-Casein substrate” value came to 0.19 nM and the “IC50, Protease Assay-H2-Opt peptide” value came to 0.12 nM. The Ki in test [2] stood at 0.035 nM. In addition, the Ki in test [3] was 0.092 nM. Further, in test [4], the Kd was 0.14 nM, the koff is 0.0044 s⁻¹ and the kon was 3e+07 M⁻¹ s⁻¹.

B2: antibody 65G8 (antibody, V domains shown)
VH: QVQLQQSGPQLVRPGASVKISCKASGYSFTSYWMHWVKQRPGQGLEWIGMIDPSDSETRLNQKFKDKATLTIDKSSSTAYMQLSSPTSEDSAVYYCTRDYFDYWGQGTTLTVSS
VL: QIVLTQSPAIMSTSPGEKVTMTCSASSSVSYMYWYQQKPGSSPRLLIYDTSNLASGVPVRFSGSGSGTSYSLTISRMEAEDAATYYCQQWSSYPYTFGGGTKLEIK
notes: as for B1
As for B2, in test [1], the “IC50, Protease Assay-Casein substrate” value amounted to 0.06 nM and the “IC50, Protease Assay-H2-Opt peptide” value worked out at 0.09 nM. In [4], this molecule registered a Kd of 0.42 nM, a koff of 0.003 s⁻¹ and an on-rate (kon) of 6.9e+06 M⁻¹ s⁻¹.

B3: hz24F7.v2 S91A (antibody, human IgG1, kappa, N297G, V domains shown)
VH: QVQLVQSGAEVKKPGASVKVSCKASGYTFTDYEMHWVRQAPGQRLEWMGAIDPETGGTAYNQKFKGRVTITADKSASTAYMELSSLRSEDTAVYYCTREGYSYEGGGYYFDYWGQGTLVTVSS
VL: DIQMTQSPSSLSASVGDRVTITCSVSSSVSYMYWYQQKPGKAPKLLIYDTSNLASGVPSRFSGSGSGTDFTFTISSLQPEDIATYYCQQWASYPTFGQGTKLEIKR
notes: hz24F7.v2 with a substitution in light chain CDR3
For B3, in [5], binding was put at a Kd of 0.0465 nM, the koff was 0.000169 s⁻¹ and the on-rate constant (kon) was 3.63e+06 M⁻¹ s⁻¹.

B4: hz24F7.v2 S92Y (antibody, human IgG1, kappa, N297G, V domains shown)
VH: QVQLVQSGAEVKKPGASVKVSCKASGYTFTDYEMHWVRQAPGQRLEWMGAIDPETGGTAYNQKFKGRVTITADKSASTAYMELSSLRSEDTAVYYCTREGYSYEGGGYYFDYWGQGTLVTVSS
VL: DIQMTQSPSSLSASVGDRVTITCSVSSSVSYMYWYQQKPGKAPKLLIYDTSNLASGVPSRFSGSGSGTDFTFTISSLQPEDIATYYCQQWSYYPTFGQGTKLEIKR
notes: as for B3
Turning to B4, in test [5], the Kd stood at 0.0321 nM, the dissociation rate constant (koff) worked out at 0.000275 s⁻¹ and the kon worked out at 8.56e+06 M⁻¹ s⁻¹. Also, in test [6], the “IC50, HTRA1 enzyme assay” value stood at 0.097 nM.

B5: hz24F7.v2 S92D (antibody, human IgG1, kappa, N297G, V domains shown)
VH: QVQLVQSGAEVKKPGASVKVSCKASGYTFTDYEMHWVRQAPGQRLEWMGAIDPETGGTAYNQKFKGRVTITADKSASTAYMELSSLRSEDTAVYYCTREGYSYEGGGYYFDYWGQGTLVTVSS
VL: DIQMTQSPSSLSASVGDRVTITCSVSSSVSYMYWYQQKPGKAPKLLIYDTSNLASGVPSRFSGSGSGTDFTFTISSLQPEDIATYYCQQWSDYPTFGQGTKLEIKR
notes: as for B3
For B5, in test [5], the Kd was 0.0249 nM, the off-rate (koff) worked out at 0.000217 s⁻¹ and the on-rate (kon) was found to be 8.7e+06 M⁻¹ s⁻¹. The “IC50, HTRA1 enzyme assay” value in test [6] came out at 0.067 nM.

B6: hz24F7.v2 S91Y (antibody, human IgG1, kappa, N297G, V domains shown)
VH: QVQLVQSGAEVKKPGASVKVSCKASGYTFTDYEMHWVRQAPGQRLEWMGAIDPETGGTAYNQKFKGRVTITADKSASTAYMELSSLRSEDTAVYYCTREGYSYEGGGYYFDYWGQGTLVTVSS
VL: DIQMTQSPSSLSASVGDRVTITCSVSSSVSYMYWYQQKPGKAPKLLIYDTSNLASGVPSRFSGSGSGTDFTFTISSLQPEDIATYYCQQWYSYPTFGQGTKLEIKR
notes: as for B3
For orientation: IC50 means the concentration that gives 50% inhibition. Low readings indicate inhibition by little substance, high ones a need for much substance. Regarding B6, in [5], the dissociation constant (Kd) worked out at 0.0405 nM, the koff was 0.000184 s⁻¹ and the association rate constant (kon) was found to be 4.54e+06 M⁻¹ s⁻¹. Besides, the “IC50, HTRA1 enzyme assay” value in test [6] stood at 0.07 nM. Besides, the concentration for half-maximal inhibition (IC50) at baseline in test [7] turned out to be 0.07 nM. Moreover, in test [8], the “IC50, enzyme assay; sample stored pH 7.4, 40° C., 0 weeks” value is 43.4 pM; the “IC50, enzyme assay; sample stored pH 7.4, 40° C., 2 weeks” value stood at 42 pM; the “IC50, enzyme assay; sample stored pH 7.4, 40° C., 4 weeks” value was found to be 54.3 pM. Besides, in [9], the dissociation constant Kd was found to be 0.0405 nM, the dissociation rate constant (koff) turned out to be 0.000184 s⁻¹ and the kon worked out at 4.54e+06 M⁻¹ s⁻¹.

B7: hz24F7.v2 S91L (antibody, human IgG1, kappa, N297G, V domains shown)
VH: QVQLVQSGAEVKKPGASVKVSCKASGYTFTDYEMHWVRQAPGQRLEWMGAIDPETGGTAYNQKFKGRVTITADKSASTAYMELSSLRSEDTAVYYCTREGYSYEGGGYYFDYWGQGTLVTVSS
VL: DIQMTQSPSSLSASVGDRVTITCSVSSSVSYMYWYQQKPGKAPKLLIYDTSNLASGVPSRFSGSGSGTDFTFTISSLQPEDIATYYCQQWLSYPTFGQGTKLEIKR
Regarding B7, in test [5], the Kd came out at 0.0439 nM, the koff amounted to 0.000161 s⁻¹ and the on-rate (kon) amounted to 3.67e+06 M⁻¹ s⁻¹. For the same molecule, the “IC50, HTRA1 enzyme assay” value in test [6] was 0.084 nM.

B8: hz24F7.v2 S91T (antibody, human IgG1, kappa, N297G, V domains shown)
VH: QVQLVQSGAEVKKPGASVKVSCKASGYTFTDYEMHWVRQAPGQRLEWMGAIDPETGGTAYNQKFKGRVTITADKSASTAYMELSSLRSEDTAVYYCTREGYSYEGGGYYFDYWGQGTLVTVSS
VL: DIQMTQSPSSLSASVGDRVTITCSVSSSVSYMYWYQQKPGKAPKLLIYDTSNLASGVPSRFSGSGSGTDFTFTISSLQPEDIATYYCQQWTSYPTFGQGTKLEIKR
notes: as for B3
In [5], B8 gave a Kd of 0.0266 nM, a dissociation rate constant (koff) of 0.000189 s⁻¹ and a kon of 7.1e+06 M⁻¹ s⁻¹.

B9: hz24F7.v2 S92T (antibody, human IgG1, kappa, N297G, V domains shown)
VH: QVQLVQSGAEVKKPGASVKVSCKASGYTFTDYEMHWVRQAPGQRLEWMGAIDPETGGTAYNQKFKGRVTITADKSASTAYMELSSLRSEDTAVYYCTREGYSYEGGGYYFDYWGQGTLVTVSS
VL: DIQMTQSPSSLSASVGDRVTITCSVSSSVSYMYWYQQKPGKAPKLLIYDTSNLASGVPSRFSGSGSGTDFTFTISSLQPEDIATYYCQQWSTYPTFGQGTKLEIKR
notes: as for B3
As for B9, in test [5], the dissociation constant (Kd) came to 0.02 nM, the koff amounted to 0.000197 s⁻¹ and the on-rate (kon) stood at 9.81e+06 M⁻¹ s⁻¹. The “IC50, HTRA1 enzyme assay” value in [6] is 0.098 nM. In [8], the “IC50, enzyme assay; sample stored pH 7.4, 40° C., 0 weeks” value was 67.5 pM; the “IC50, enzyme assay; sample stored pH 7.4, 40° C., 2 weeks” value worked out at 75.2 pM; the “IC50, enzyme assay; sample stored pH 7.4, 40° C., 4 weeks” value is 93.7 pM.

B10: antibody 55B12 (antibody, V domains shown)
VH: QVQLQQPGAELVKPGASVKLSCKASGYTFTNYWMHWVKQRPGQGLEWIGNIDPSDSETHYNQKFKDKATLAVDKSSSTAYMQLSSLTSEDSAVYYCAREDSSGYGAYWGQGTLVTVSA
VL: QIVLTQSPAIMSASPGEKVTMTCSASSSVNYMHWYQQKSGTSPKRWIYDTSKLASGVPDRFSGSGSGTSYSLTISSMEAEDAATYYCQQWSSHPLTFGAGTKLELK
notes: as for B1
For the molecule B10, in test [1], the “IC50, Protease Assay-Casein substrate” value worked out at 0.13 nM and the “IC50, Protease Assay-H2-Opt peptide” value amounted to 0.13 nM. In test [4], this molecule showed a Kd of 0.45 nM, an off-rate constant (koff) of 0.017 s⁻¹ and a kon of 3.8e+07 M⁻¹ s⁻¹.
